Biological target: recombinant human KLK5 (human) (UniProt Q9Y337)
Experiment: cell-based or functional assay

Chain of recombinant human KLK5 (human) (Q9Y337 67-293): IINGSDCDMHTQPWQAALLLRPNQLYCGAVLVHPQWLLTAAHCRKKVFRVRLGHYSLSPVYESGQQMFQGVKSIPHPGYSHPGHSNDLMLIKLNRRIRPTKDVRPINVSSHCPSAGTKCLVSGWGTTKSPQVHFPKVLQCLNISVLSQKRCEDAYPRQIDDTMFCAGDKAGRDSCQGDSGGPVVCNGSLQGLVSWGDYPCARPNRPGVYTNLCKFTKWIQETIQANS

Substance: Spink5.Fc (Fc fusion)
- IC50, KLK5-induced IL-8 secretion by A549 cells: 21 nM

Source: patent publication US20200040103A1
